Key:
[1] = target: T1, hen egg lysozyme (hen, UniProt P00698 19-147); assay: phage ELISA on immobilised HEL
T1 construct: also called HEL; hen egg white lysozyme
Procedure: Phage ELISA assays. The ELISA wells were coated overnight at 4° C. with one of the following ligands: 10 μg/ml of protein A in PBS, 10 μg/ml of mAb 9E10 in PBS, or 3 mg/ml of HEL in 0.1 M NaHCO₃ buffer, pH 9.6. After blocking the wells with PBS containing 2% Tween-20 (PBST), a dilution series of phage in PBST was incubated for 2 h. After washing with PBS, bound phage were detected as follows. In assays for binding to REL, phage was detected directly using a conjugate of horseradish peroxidase with an anti-M13 monoclonal antibody (Amersham) using 3,3′,5,5′-tetramethylbenzidine as substrate.

[2] = target: T2, protein A (UniProt P38507 37-477); assay: phage ELISA on protein A, heated 80 C against unheated, three data points
T2 construct: also called pA
Procedure: (§1) After biotinylation of the phage, for each clone, a 100 μl sample of phage was transferred to a thin-wall PCR tube (and the remaining biotinylated phage was kept on ice). The tube was placed in a PCR apparatus for incubation at 80° C. during 10 min (temperature of cover lid: 85° C.). After heating, the tube was rapidly cooled down to 4° C. in the PCR apparatus.
(§2) ELISA plates were coated and blocked as described in Section 4. The samples were transferred to the empty wells of coated/blocked ELISA plates, and incubated for 2 hours at room temperature. Unbound phage was then removed by washing the wells 6-ties with PBS. For detection, Str-HRP (from a 1 mg/ml stock in PBS) were diluted 1/2000 in PBS supplemented with 2% v/v TWEEN 20 (Polyoxyethylensorbitan monolaurate; for protein A-based ELISA) or 2% w/v BSA (for protein L-based ELISA), and 100 μl of the resulting solution was added to each ELISA well. After incubation for 1 hour at room temperature, the unbound conjugate was removed by washing the wells 6-times with PBS. For colorimetric reaction, a 10 mg/ml solution of TMB (tetramethylbenzidine) was diluted 100-fold in a buffer of 0.1 M sodium acetate, pH 6.0. Next, hydrogen peroxyde was added (0.4 ul per ml of buffer/TMB, and 100 ul of this solution was added to each ELISA well. After color (blue) developed, the reaction was stopped by adding 50 μl of 1 M sulfuric acid per well (color turns to yellow). The optical density was recorded at 450 nm.
These clones were characterized for refoldability on phage (according to the protocol of Section 5, but with three data points being taken) and in solution.

[3] = target: T2, protein A; assay: phage ELISA on protein A, heated 80 C against unheated, titration (Section 5)
Procedure: as §1, §2

[4] = target: T2, protein A; assay: phage ELISA on protein A, multivalent phage 5x10^11 TU/ml, 80 C 10 min against untreated
Procedure: The ELISA wells were coated overnight at 4° C. with one of the following ligands: 10 μg/ml of protein A in PBS, 10 μg/ml of mAb 9E10 in PBS, or 3 mg/ml of HEL in 0.1 M NaHCO₃ buffer, pH 9.6. After blocking the wells with PBS containing 2% Tween-20 (PBST), a dilution series of phage in PBST was incubated for 2 h. After washing with PBS, bound phage were detected as follows. […] In assays for binding to protein A, the phage (4×10¹⁰ TU/ml in PBS) was first biotinylated at 4° C. with biotin-NHS (Perbio) (50 μM final concentration) and detected by sequential addition of streptavidin-horseradish peroxidase conjugate (1 μg/ml) (Sigma-Aldrich) in PBST, and substrate as above.

T1 sequence (P00698 19-147): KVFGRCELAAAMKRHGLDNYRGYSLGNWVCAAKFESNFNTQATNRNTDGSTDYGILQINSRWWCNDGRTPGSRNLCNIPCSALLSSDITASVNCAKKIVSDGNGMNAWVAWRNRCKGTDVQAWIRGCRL

B1: HEL4 (other)
VH: EVQLLESGGGLVQPGGSLRLSCAASGFRISDEDMGWVRQAPGKGLEWVSSIYGPSGSTYYADSVKGRFTISRDNSKNTLYLQMNSLRAEDTAVYYCASALEPLSEPLGFWGQGTLVTVSS
notes: Human VH dAb against hen egg lysozyme; also called dAb HEL4; Fd-myc-HEL4
binding result [1]: binds | Refoldability on phage (protein A binding retained after heating) [2]: 82% | % refolding (protein A binding retained after heating) [3]: 18.5% | fold reduction of binding after heating [4]: 3 fold
